The text below walks through data of the supplement of paper PMC9170038.

Data set [1] has as its system K4 kissing-loop RNA reporter. Description: apparent KD of K4 kissing-loop reporter; higher = weaker reporter binding. The note with it: Eterna round: R107. As for the experimental part: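 RNA-MaP round R107: designed RNA switches with theophylline, tryptophan, arginine or FMN aptamers are transcribed on-chip within common flanks. They are titrated with a labelled K4 kissing-loop RNA reporter in RNA-MaP buffer (100 mM Tris pH 7.5, 80 mM KCl, 4 mM MgCl2), without ligand or with the indicated ligand. Median apparent KD per design.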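 Note: bound reporter read as fluorescence of individual clusters on recovered sequencing chips by microscopy, with normalized cluster intensities fitted with a binding model.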

Data set [2] relates to MS2 coat protein. Description: apparent KD of MS2 coat protein; designed switch direction (-1 OFF switch, 1 ON switch): -1; higher = weaker reporter binding. In outline: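 Stalled E. coli RNA polymerase transcribed designed RNA switches on Illumina chips, which were then titrated with SNAP-549-labelled MS2 coat protein, doubling from 0.7 or 1.5 nM to 3 µM. Steps lasted from 0.8–1.5 h at the lowest concentration to 10–20 min at the highest. The apparent KD is each design's median over clusters of curve-fitted normalised fluorescence.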

Where [3] appears, read: input ligand: theophylline 20 uM.
Where [4] appears, read: input ligand: tryptophan 2.4 mM.
[5] abbreviates: input ligand: microRNA oligo, concentration not stated.
Where [6] appears, read: Eterna round: R95, input ligand: FMN 200 uM.
Setting [7] is: Eterna round: R95, input ligand: microRNA oligo, concentration not stated.
Setting [8] is: Eterna round: R95, input ligand: none.

Regarding “AAAACGCUGUGAAUAACACAGCGAAAUUCGCGAGGACCGGUACGGCCGCCACUCGCUAACUGCGAGUGAUGUUCGAUAAUAAAAU [Mat - Mod of OpenEnded 3 - D3]”, the “apparent KD of K4 kissing-loop reporter” value came to 166 nM in data set [1] (input ligand: FMN 200 uM); 90.3 nM in data set [1] (input ligand: arginine 13.2 mM); 170 nM in data set [1] (input ligand: none); 161 nM in data set [1] (setting [3]); 104 nM in data set [1] (setting [4]).
Taken in the same sequence, the figures for “AAAACUCAUGGCUUAUAUCCGUGUCUCGAAGGAGCGUACAGCGGUACAGGUAGGUCGCGAGACAUGAGUGAUGUUCAUGUGUAAA [KL-XArg-A6 #analogue]” were 109 nM, 109 nM, 129 nM, 169 nM and 104 nM.
Taken in the same sequence, the figures for “AAAACUCCGGGUAGUGAUGUUACCUAGGAUACCAGUAUCGCAACAUACCCUUGGCAGCCUCUUCCUGCUGGCGUCGCUUGGCCUA [theeternabot_exclusion_KL_Theo_A_42]” were 95.2 nM, 80.5 nM, 90.8 nM, 91.9 nM and 75.1 nM.
Taken in the same sequence, the figures for “AAAAUAAACCAGUGAUGUUGGUAGCCAGAUACCAGCGACGAAAGUCGCCCUUGGCAGCUGUGGACGUACAAAAUAAGUACGUCCU” were 248 nM, 232 nM, 268 nM, 238 nM and 230 nM.
With “UUUUUACAUGAGGAUCACCCAUGUGAGGAUAUGGAGCGCGACCGCGCGGUCGCGUACACCAGAAGGCGCAUGAU [1st #77] (Eterna round: R97, puzzle: Exclusion 1)”, the entries for the “apparent KD of MS2 coat protein” value in data set [2] (input ligand: FMN 200 uM) and in data set [2] (input ligand: none) were 243 nM and 51.7 nM, respectively.
On to “UUUUUAGAUGAAGGAUAUACUUAACAUGAGGAUCACCCAUGUGGUGUUGUGAGUGAGUGAGUUUAGUAGAAGGUCAAGUAUUUU [JMF's solution 45] (Eterna round: R96, puzzle: Exclusion NG 2)”, for which the “apparent KD of MS2 coat protein” value worked out at 769 nM in data set [2] (input ligand: FMN 200 uM), 377 nM in data set [2] (setting [5]) and 404 nM in data set [2] (input ligand: none).
Consider “UUUUUAUAUGAAGGAUAUACUUAACAUGAGGAUCACCCAUGUGGUGUUGUGAGUGAGUGAGUUUAGUAGAAGGUCAAGUCUUUU [JMF's solution 36] (Eterna round: R96, puzzle: Exclusion NG 2)”, for which the “apparent KD of MS2 coat protein” value in data set [2] (input ligand: FMN 200 uM) amounted to 555 nM; in data set [2] (setting [5]), 383 nM; in data set [2] (input ligand: none), 361 nM.
Taken in the same sequence, the figures for “UUUUUAUAUGAAGGAUAUACUUAACAUGAGGAUCACCCAUGUGGUGUUGUGAGUGAGUGAGUUUAGUAGAAGGUCAAUAAUUUU [JMF's solution 9] (Eterna round: R96, puzzle: Exclusion NG 2)” were 996 nM, 180 nM and 286 nM.
Taken in the same sequence, the figures for “UUUUUAUAUGAAGGAUAUACUUAACAUGAGGAUCACCCAUGUGGUGUUGUGAGUGAGUGAGUUUAGUAGAAGGUCAAUGAUUAU [JMF's solution 59] (Eterna round: R96, puzzle: Exclusion NG 2)” were 991 nM, 205 nM and 321 nM.
Taken in the same sequence, the figures for “UUUUUAUAUGAAGGAUAUACUUAACAUGAGGAUCACCCAUGUGGUGUUGUGAGUGAGUGAGUUUAGUAGAAGGUCAAUGAUUCU [JMF's solution 61] (Eterna round: R96, puzzle: Exclusion NG 2)” were 864 nM, 299 nM and 419 nM.
With “UUUUUAUAUGAAGGAUAUACUUAACAUGAGGAUCACCCAUGUGGUGUUGUGAGUGAGUGAGUUUAGUAGAAGGUCAAUUCUCUU [JMF's solution 81] (Eterna round: R96, puzzle: Exclusion NG 2)”, the “apparent KD of MS2 coat protein” value in data set [2] (input ligand: FMN 200 uM) was 989 nM; in data set [2] (setting [5]), 156 nM; in data set [2] (input ligand: none), 492 nM.
As for “UUUUUAUAUGAAGGAUAUACUUAACAUGAGGAUCACCCAUGUGGUGUUGUGAGUGAGUGAGUUUAGUAGAAGGUCAAUUCUUUA [JMF's solution 83] (Eterna round: R96, puzzle: Exclusion NG 2)”, the “apparent KD of MS2 coat protein” value in data set [2] (input ligand: FMN 200 uM) stood at 866 nM; in data set [2] (setting [5]) it was 443 nM; in data set [2] (input ligand: none) it was 463 nM.
Taken in the same sequence, the figures for “UUUUUAUCUGAAGGAUAUACUUAACAUGAGGAUCACCCAUGUGGUGUUGUGAGUGAGUGAGUUUAGUAGAAGGUCAAUUAUUUU [JMF's solution 19] (Eterna round: R96, puzzle: Exclusion NG 2)” were 1310 nM, 392 nM and 380 nM.
For the sequence “UUUUUAUUUGAAGGAUAUACUUAACAUGAGGAUCACCCAUGUGGUGUUGUGAGUGAGUGAGUUUAGUAGAAGGUCAAUUCUUUU [JMF's solution 85] (Eterna round: R96, puzzle: Exclusion NG 2)”, the “apparent KD of MS2 coat protein” value in data set [2] (setting [5]) stood at 391 nM.
With “UUUUUCAGGCCAGAUCCUCACAUGAGGAUCACCCAUGUGCUCGUCUGUUUUCGCGCUAGCUUUUUUUUGGUAGGGCU [Level Boss var2-17] (puzzle: Sensor v3, turn-off variant 1)”, the “apparent KD of MS2 coat protein” value in data set [2] (setting [6]) stood at 329 nM; in data set [2] (setting [7]), 29.7 nM; in data set [2] (setting [8]), 325 nM.
Taken in the same sequence, the figures for “UUUUUCAGGCCAGAUCCUCACAUGAGGAUCACCCAUGUGCUCGUCUGUUUUCGCUCUUUCUUUUUUUUGUUUGUGCU [Level Boss var2-19] (puzzle: Sensor v3, turn-off variant 1)” were 181 nM, 27.5 nM and 312 nM.
With “UUUUUCUCAGGAUAUACAUGAGGAUCACCCAUGUAUAUUAAUGGUAAUACAUGGGAAUGUAGAAGGGAGCUCAU [Omei Ex3 Pseudoloop 15] (Eterna round: R97, puzzle: Exclusion 3)”, the “apparent KD of MS2 coat protein” value amounted to 112 nM in data set [2] (input ligand: FMN 200 uM) and 122 nM in data set [2] (input ligand: none).
In the case of “UUUUUGUCAGGAUAUGAUUAGAUCUACUUUUGUAGAUCUAAUCAGAAGGGACAUGAGGAUCACCCAUGUAGUUU [Ex4 - 3 - 11] (puzzle: Exclusion 4)”, the “apparent KD of MS2 coat protein” value in data set [2] (setting [7]) worked out at 35.7 nM.
The same measure, in the same setting: with “UUUUUGUGAGGAUAUCAGUAGUAAAUAAAUAAAAUAACUACUGAGAAGGCACAUGAGGAUCACCCAUGUUCUUU [Mat - Exclusion 4 - Mod of Salish - D67] (puzzle: Exclusion 4)” the figure was 17.1 nM; with “UUUUUUGUUGUGAGGAUAUCGUAGUUAUUUUGUUACGAGAAGGCACAUGAGGAUCACCCAUGUUUUUUGAUGUU [JR_BMOE4_Sub064] (puzzle: Brourd's mod of Exclusion 4)”, 25.4 nM.
For the sequence “UUUUUUUAUGAAGGAUAUACUUAACAUGAGGAUCACCCAUGUGGUGUUGUGAGUGAGUGAGUUUAGUAGAAGGUCAAUUAUUUU [JMF's solution 23] (Eterna round: R96, puzzle: Exclusion NG 2)”, the “apparent KD of MS2 coat protein” value in data set [2] (input ligand: FMN 200 uM) came to 412 nM; in data set [2] (setting [5]), 379 nM; in data set [2] (input ligand: none), 334 nM.
Regarding “UUUUUUUGAGUAAGGAUAUGAUGCAGGAAACUGCGUCAGAAGGUACAUGAGGAUCACCCAUGUUAAUUUUGUUU [Explosion 14 - Jieux - Brourd's mod of Exclusion 4] (Eterna round: R97, puzzle: Brourd's mod of Exclusion 4)”, the “apparent KD of MS2 coat protein” value in data set [2] (input ligand: FMN 200 uM) is 18.4 nM; in data set [2] (input ligand: none) it was 20.3 nM.
As to “UUUUUUUUGCGAGGAUAUGCAUUUAGUUAGUUAGCAGAAGGCGCGUUUCUAUACUCCUCUUCUUACAUGAGGAUCACCCAUGUU [JR_ExcNG1_Sub033] (Eterna round: R96, puzzle: Exclusion NG 1)”, the entries for the “apparent KD of MS2 coat protein” value in data set [2] (input ligand: FMN 200 uM), in data set [2] (setting [5]) and in data set [2] (input ligand: none) were 69.9 nM, 34.5 nM and 35.1 nM, respectively.
